Results from article PMC5986196, “Arrest of trans-SNARE zippering uncovers loosely and tightly docked intermediates in membrane fusion” (The Journal of Biological Chemistry, 2018).

Target: T1, syntaxin 1a (syx(183–288)) (Rattus norvegicus, UniProt P32851 183-288)
T1 construct: also called N-terminally truncated variant of syntaxin; source: in n-octyl β-D-glucopyranoside
Experiment: co-purification by ion exchange chromatography (Mono Q); purified monomers mixed overnight at 4 °C, complex purified the next day on a Mono Q column
Conditions: both partners purified

T1 sequence (P32851 183-288): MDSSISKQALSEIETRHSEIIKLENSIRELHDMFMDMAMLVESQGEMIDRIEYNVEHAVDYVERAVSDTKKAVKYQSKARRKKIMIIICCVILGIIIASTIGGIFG

B1: syb(49–96), C-terminal fragment of synaptobrevin (domain or fragment, Rattus norvegicus, UniProt P63045 49-96, looked up)
chain: NVDKVLERDQKLSELDDRADALQAGASQFETSAAKLKRKYWWKNLKMM
notes: synaptobrevin 2 (syb), Rattus norvegicus, residues 49–96; also called synaptobrevin(49–96)
**Q.** Does B1 bind?
**A.** Result: binds
